Laboratory results as given in publication PMC7125023.

Biological target: anti-RSV 2Fc mAb (dual Fc human IgG1, clone B21M variable regions) (human)
Assay: SPR

human neonatal Fc receptor (FcRn) (from UniProt P55899 24-297)
Kd: 0.121 µM
stoichiometry N: 4.17 FcR:mAb

human FcγRI (from UniProt P12314 16-292) (receptor)
Kd: 0.00182 µM
stoichiometry N: 2.12 FcR:mAb
